This is an account of results in patent publication US20250340881A1, “PHARMACEUTICAL COMPOSITION FOR TREATING CANCER COMPRISING FOXM1 MUTANT OR FOXM1 SHRNA” (Industry-University Cooperation Foundation Hanyang …, priority 2022, published 2025).

One assay has as its system THP-1 cells. Nature of the assay: M1 and M2 marker mRNA in THP-1 cells co-cultured with FoxM1-expressing A549 cells. It counts as cell-based, human. To be noted: co-culture 48 h. An excerpt:
In the animal tissues, it was confirmed that both PD-L1 protein expression and CD274 mRNA expression were increased in cancer cells expressing FoxM1 (FIG. 5D, 5E). […] From the results described above, we investigated whether FoxM1 phosphorylated point mutant (S25E) affects the polarization of macrophages in the tumor microenvironment. After co-culturing human monocyte THP-1 cells and the cell groups over-expressing FoxM1 point mutants, M1 and M2 markers were examined in THP-1 cells.
Next, an expression suppression system for suppressing FoxM1 expression was established to observe whether the FoxM1 phosphorylated point mutant (S25E) directly affects polarization to M2 macrophages. First, to inhibit the expression of mRNA of FoxM1, a pLKO-puro.1-hFoxM1 plasmid was produced using a pLKO-puro.1 vector to construct shRNAs targeting nucleotide sequences at 709-729 positions in the human FoxM1 mRNA sequence. The following sequences can be used as target sequences for human FoxM1 shRNA production, and oligonucleotides with the following sequences can be used as primers for shRNA production. The gene accession number for human FoxM1 mRNA in PubMed is NM_001243088.2, and it contains 3507 bp. The following primers were used for shRNA production: 5′-ccgg-[…]-ctcgag-[…]-tttttg-3′ (forward primer) and 5′-aattcaaaaa-AGCAAG AGATGGAGGAAAAGG-ctcgag-[…]-3′ (reverse primer). Then, after purifying and concentrating each lentivirus for expression of the produced FoxM1 shRNA, it was constructed by infecting a lung cancer cell line, A549 cells expressing FoxM1, with the virus. The mRNA expression of M2 markers, CD163, CD206, and VEGFA, was examined after co-culturing lung cancer cells (4×10^4 cells/ml) with suppressed FoxM1 expression and THP-1 cells (1.2×10^5 cells/ml) for 48 h. […] When co-culturing with cancer cells expressing the FoxM1 variant S25E, it was confirmed that the M2 markers CD163, CD206, and VEGFA were all increased by 2 folds or more in THP1 cells compared to the control group (Mock_shCtrl) (FIG. 6D).
After co-culturing the FoxM1 WT protein over-expressed cancer cells (4×10^4 cells/ml) and THP-1 cells (1.2×10^5 cells/ml) for 48 h, the mRNA expression of M1 markers INOS and IL12B was not altered, while the mRNA expression of all the M2 markers IL10, CD163, CD206, TGFB1, and VEGFA was increased in the FoxM1 WT (FIG. 13A). Among them, CD206, TGFB1, and VEGFA had been known as markers for M2d-tumor-associated macrophages (M2d-TAM) (JAYASINGAM, Sharmilla Devi, et al., Frontiers in Oncology (2020) 9: 1512.).

Assay [1] concerns A549 lung cancer cells expressing the FoxM1 phosphorylated point mutant protein. Nature of the assay: Migration assay of A549 cells over-expressing FoxM1 phosphorylated point mutant treated with peptides. Format: cell-based. To be noted: doxycycline 3 μg/ml, 48 hours, no peptide. On the procedure: Moreover, to evaluate the effects and efficacy of the three peptides comprising the FoxM1 non-phosphorylation point mutation on the motility of cancer cells, the cell motility was measured by a migration assay (FIG. 8C). Specifically, 5×10^4 cells of A549 lung cancer cells expressing the FoxM1 phosphorylated point mutant protein were seeded into an 8.0 μm, 24-well insert. Culture medium containing 10% serum (FBS) was added to a 24-well plate, and then the insert was placed into the plate. 0.5 ml of RPMI 1640 (10% FBS) containing 3 μg/ml of doxycycline was dispensed into the plate, and each of the three kinds of 5 μM of FoxM1 non-phosphorylated point mutant peptides was simultaneously treated. […] After 5 minutes, the plate was washed with 1×PBS five times, and the stained intensity was measured using the Odyssey infrared imaging system. […]
Specifically, 5×10^4 cells of A549 lung cancer cells expressing the FoxM1 phosphorylated point mutant protein were seeded in an 8.0 μm, 24-well insert, and the inserts were placed in a 24-well plate after medium with 10% fetal bovine serum (FBS) was dispensed on the 24-well plate. […] After 5 minutes, the plate was washed with 1×PBS five times, and the stained intensity was measured using the Odyssey infrared imaging system. […]

Assay [2] has as its system A549 cells. Briefly: ELISA of TGFB1 and VEGFA proteins in A549 culture medium. Format: cell-based. To be noted: medium cultured 48 h. On the procedure:
(§1) In addition, after co-culturing of human monocyte THP-1 cells and cell groups over-expressing FoxM1 point mutations for 48 hours under the conditions where the previous experiments were performed, the mRNA expression levels of M2d-inducing factors IL4, IL6, IL10, and VEGFA in A549 cells expressing FoxM1 S25E were analyzed. […] The amounts of TGFB1 and VEGFA proteins in the medium cultured for 48 h with A549 cells (4×10^4 cells/ml) expressing FoxM1 variants were measured by ELISA.
For orientation: An ELISA detects its analyte on a solid surface through an enzyme-linked reagent.

Assay [3] has as its system A549 cells. Briefly: IL6, IL1A and CD274 mRNA in A549 cells co-cultured with Jurkat cells. Format: cell-based. To be noted: co-culture with Jurkat 48 h.
In assay [4] the test system is A549 cells. Briefly: M2d-inducing factor mRNA in A549 cells after co-culture with THP-1 cells. It counts as cell-based. To be noted: co-culture with THP-1 48 hours. On the procedure: as §1
The subject of a further assay is THP-1 monocytes. Nature of the assay: PD-1 (CD279) mRNA in THP-1 monocytes co-cultured with A549 cells. To be noted: co-culture. It counts as cell-based, human. On the procedure:
To examine the mRNA expression levels of PD-1 and PD-L1, which are involved in solid tumor immune evasion, in THP-1 cells and the cells expressing the FoxM1 phosphorylated point mutant, the expression of PD-1 (CD279) mRNA, an immune evasion factor, was measured by qRT-PCR in THP-1 monocytes co-cultured with A549^S25E cells for 48 h (FIG. 7B). It was observed that the expression of mRNA of PD-L1 (CD274), an immune evasion factor, increased by 2 folds in the A549^S25E cells expressing the phosphorylated point mutant compared to the control group.

B1: S25E: FoxM1 phosphorylated point mutant of the S25 residue, expressed by lentivirus in A549 cells (protein, listed as Homo sapiens)
chain: MKTSPRRPLILKRRRLPLPVQNAPEETSEEEPKRSPAQQESNQAEASKEVAESNSCKFPAGIKIINHPTMPNTQVVAIPNNANIHSIITALTAKGKESGSSGPNKFILISCGGAPTQPPGLRPQTQTSYDAKRTEVTLETLGPKPAARDVNLPRPPGALCEQKRETCDGEAAGCTINNSLSNIQWLRKMSSDGLGSRSIKQEMEEKENCHLEQRQVKVEEPSRPSASWQNSVSERPPYSYMAMIQFAINSTERKRMTLKDIYTWIEDHFPYFKHIAKPGWKNSIRHNLSLHDMFVRETSANGKVSFWTIHPSANRYLTLDQVFKQQQKRPNPELRRNMTIKTELPLGARRKMKPLLPRVSSYLVPIQFPVNQSLVLQPSVKVPLPLAASLMSSELARHSKRVRIAPKVLLAEEGIAPLSSAGPGKEEKLLFGEGFSPLLPVQTIKEEEIQPGEEMPHLARPIKVESPPLEEWPSPAPSFKEESSHSWEDSSQSPTPRPKKSYSGLRSPTRCVSEMLVIQHRERRERSRSRRKQHLLPPCVDEPELLFSEGPSTSRWAAELPFPADSSDPASQLSYSQEVGGPFKTPIKETLPISSTPSKSVLPRTPESWRLTPPAKVGGLDFSPVQTSQGASDPLPDPLGLMDLSTTPLQSAPPLESPQRLLSSEPLDLISVPFGNSSPSDIDVPKPGSPEPQVSGLAANRSLTEGLVLDTMNDSLSKILLDISFPGLDEDPLGPDNINWSQFIPELQ
Regarding B1, in the assay on THP-1 cells, the “M2 markers CD163, CD206 and VEGFA in THP1 cells compared to Mock_shCtrl” value is recorded as at least 2 folds; the “mRNA expression of M1 markers INOS and IL12B in THP-1 cells” value is “did not change”; the “mRNA expression of M2 markers IL10, CD163, Cd206, TGFB1 and VEGFA in THP-1 cells” value is given as at least 2 folds. Further, the “stained intensity (migration) of over-expressed group compared to the control group” value in assay [1] amounted to 5 folds. Further, in the assay on A549 cells [2], the “amount of TGFB1 protein in medium, compared to Mock” value was 5 folds and the “amount of VEGFA protein in medium, compared to Mock” value is listed as 4 folds. Also, in the assay on A549 cells [3], the “expression of IL6, ILIA and CD274 in A549 cells (in words)” value is on record as “significantly low expression”; the “mRNA expression of CD274 in A549 cells” value is listed as 5 folds; the “mRNA expression of IL6 in A549 cells” value is on record as 3.5 folds; the “mRNA expression of ILIA in A549 cells” value is reported as 4.5 folds. In the assay on A549 cells [4], the “mRNA expression level of IL4 in A549 cells” value came out at 1.8 folds, the “mRNA expression level of IL6 in A549 cells” value is given as 1.8 folds, the “mRNA expression level of IL10 in A549 cells” value is reported as 2.2 folds and the “mRNA expression level of VEGFA in A549 cells” value was 2.5 folds. Moreover, the “mRNA expression level, fifth value printed (factor not named)” value in the assay on A549 cells [4] was found to be 2.5 folds.

B2: S25A: FoxM1 protein with Ser25 substituted with alanine, non-phosphorylated point mutant, expressed by lentivirus in A549 cells (protein)
chain: MKTSPRRPLILKRRRLPLPVQNAPAETSEEEPKRSPAQQESNQAEASKEVAESNSCKFPAGIKIINHPTMPNTQVVAIPNNANIHSIITALTAKGKESGSSGPNKFILISCGGAPTQPPGLRPQTQTSYDAKRTEVTLETLGPKPAARDVNLPRPPGALCEQKRETCDGEAAGCTINNSLSNIQWLRKMSSDGLGSRSIKQEMEEKENCHLEQRQVKVEEPSRPSASWQNSVSERPPYSYMAMIQFAINSTERKRMTLKDIYTWIEDHFPYFKHIAKPGWKNSIRHNLSLHDMFVRETSANGKVSFWTIHPSANRYLTLDQVFKQQQKRPNPELRRNMTIKTELPLGARRKMKPLLPRVSSYLVPIQFPVNQSLVLQPSVKVPLPLAASLMSSELARHSKRVRIAPKVLLAEEGIAPLSSAGPGKEEKLLFGEGFSPLLPVQTIKEEEIQPGEEMPHLARPIKVESPPLEEWPSPAPSFKEESSHSWEDSSQSPTPRPKKSYSGLRSPTRCVSEMLVIQHRERRERSRSRRKQHLLPPCVDEPELLFSEGPSTSRWAAELPFPADSSDPASQLSYSQEVGGPFKTPIKETLPISSTPSKSVLPRTPESWRLTPPAKVGGLDFSPVQTSQGASDPLPDPLGLMDLSTTPLQSAPPLESPQRLLSSEPLDLISVPFGNSSPSDIDVPKPGSPEPQVSGLAANRSLTEGLVLDTMNDSLSKILLDISFPGLDEDPLGPDNINWSQFIPELQ
modifications: left off: a dimerising Fc or GST
notes: FoxM1 protein with Ser25 substituted with alanine, non-phosphorylated point mutant, expressed by lentivirus in A549 cells
Take B2: in the assay on THP-1 monocytes, the “expression of PD-1 mRNA (CD279) in THP-1 monocytes” value is on record as “highest”.
